Paper PMC11994318, “In vitro characterization of the yeast DEAH/RHA RNA helicase Dhr1” (The Journal of Biological Chemistry, 2025)
Substitutions are numbered along the chain they refer to. Ends that are not written are not given here. * marks the point of attachment. 6FAM = O=C1OC2(c3ccc(O)cc3Oc3cc(O)ccc32)c2cc(C(=O)*)ccc21

B1: Utp14-A′ (UTP14 746–780), 6-FAM-labelled peptide (peptide)
peptide: 6FAM-VFMFKQQDVIAEAFAGDDVVAEFQEEKKRVIDDED
notes: also called Utp14 fragment; source: synthetic peptide (Genscript)

What was measured:
ΔN-Dhr1-ΔSKTTD [1] = target: T1, ΔN-Dhr1-ΔSKTTD (Saccharomyces cerevisiae, UniProt Q04217 376-665+671-1267, internal_change); experiment: fluorescence polarization; no nucleotide; 10 mM Mg2+; 40 mM Tris-HCl pH 8.0, 40 mM KCl, 150 mM NaCl, 2 mM NaOAc, 2 mM DTT, 10 mM MgCl2, 4% glycerol, 0.05% Tween 20, 25 °C, 10 min; 1.25 nM RNA, 0.625 nM-20 µM protein; conditions: protein: recombinant; tags: C-terminal His6 (pET21a); label: 5' 6-FAM; single strand
T1 sequence: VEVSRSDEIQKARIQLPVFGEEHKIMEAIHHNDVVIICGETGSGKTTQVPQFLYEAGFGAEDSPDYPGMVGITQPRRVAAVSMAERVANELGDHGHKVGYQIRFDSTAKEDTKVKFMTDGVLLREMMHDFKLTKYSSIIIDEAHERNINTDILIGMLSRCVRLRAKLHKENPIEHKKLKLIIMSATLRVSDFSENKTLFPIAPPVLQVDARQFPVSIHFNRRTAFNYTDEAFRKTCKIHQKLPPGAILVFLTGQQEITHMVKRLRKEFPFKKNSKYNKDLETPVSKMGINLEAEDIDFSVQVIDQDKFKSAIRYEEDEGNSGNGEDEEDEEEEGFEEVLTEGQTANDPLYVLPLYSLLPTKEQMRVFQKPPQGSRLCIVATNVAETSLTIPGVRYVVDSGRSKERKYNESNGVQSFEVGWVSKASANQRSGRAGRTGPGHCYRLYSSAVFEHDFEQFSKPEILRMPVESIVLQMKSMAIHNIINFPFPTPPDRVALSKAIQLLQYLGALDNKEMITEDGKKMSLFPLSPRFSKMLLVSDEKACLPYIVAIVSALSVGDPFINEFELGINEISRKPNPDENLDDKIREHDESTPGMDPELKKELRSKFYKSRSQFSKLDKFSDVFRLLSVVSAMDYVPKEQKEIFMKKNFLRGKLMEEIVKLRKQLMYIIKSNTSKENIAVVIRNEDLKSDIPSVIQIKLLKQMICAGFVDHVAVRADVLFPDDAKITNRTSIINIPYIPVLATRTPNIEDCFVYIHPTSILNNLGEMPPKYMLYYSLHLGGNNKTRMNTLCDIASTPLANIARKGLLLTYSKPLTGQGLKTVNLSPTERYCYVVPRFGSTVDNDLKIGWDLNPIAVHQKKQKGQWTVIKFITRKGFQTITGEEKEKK

ΔN-Dhr1-WT = target: T2, ΔN-Dhr1-WT (Saccharomyces cerevisiae, UniProt Q04217 376-1267); experiment: as above; conditions: protein: recombinant; tags: C-terminal His6 (pET21a); label: 5' 6-FAM; single strand
T2 sequence: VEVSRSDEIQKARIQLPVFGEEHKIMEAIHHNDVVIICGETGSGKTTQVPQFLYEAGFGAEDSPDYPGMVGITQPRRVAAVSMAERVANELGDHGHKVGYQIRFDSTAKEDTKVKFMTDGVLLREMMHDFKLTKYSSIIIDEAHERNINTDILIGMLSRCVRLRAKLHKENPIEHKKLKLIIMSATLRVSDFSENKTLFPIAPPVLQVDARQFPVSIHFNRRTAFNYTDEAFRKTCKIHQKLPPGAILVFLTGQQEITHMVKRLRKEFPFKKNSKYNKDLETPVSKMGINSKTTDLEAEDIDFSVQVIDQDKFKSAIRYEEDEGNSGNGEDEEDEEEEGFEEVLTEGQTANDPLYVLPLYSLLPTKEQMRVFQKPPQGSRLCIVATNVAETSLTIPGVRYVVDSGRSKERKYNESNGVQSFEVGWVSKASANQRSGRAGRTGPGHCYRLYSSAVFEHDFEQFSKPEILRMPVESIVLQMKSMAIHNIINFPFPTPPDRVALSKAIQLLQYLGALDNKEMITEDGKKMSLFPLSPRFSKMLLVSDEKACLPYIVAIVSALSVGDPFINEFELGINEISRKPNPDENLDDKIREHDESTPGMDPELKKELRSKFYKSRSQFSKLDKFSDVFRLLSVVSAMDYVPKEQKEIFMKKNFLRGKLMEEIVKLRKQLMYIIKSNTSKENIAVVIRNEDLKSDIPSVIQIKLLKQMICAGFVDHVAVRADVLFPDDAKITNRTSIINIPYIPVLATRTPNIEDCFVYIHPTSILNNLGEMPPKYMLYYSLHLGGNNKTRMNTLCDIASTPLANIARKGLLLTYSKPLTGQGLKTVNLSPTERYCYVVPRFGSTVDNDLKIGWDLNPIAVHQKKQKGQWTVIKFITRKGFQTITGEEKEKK

ΔN-Dhr1-ΔSKTTD [2] = target: T3, ΔN-Dhr1-ΔSKTTD (Saccharomyces cerevisiae, UniProt Q04217 376-1267, ΔSKTTD (aa 666–670)); experiment: fluorescence polarisation; 1.25 nM 6-FAM-labelled Utp14-A′ peptide titrated with Dhr1 variants; 25 °C; 40 mM Tris–HCl pH 8.0, 40 mM KCl, 150 mM NaCl, 2 mM NaOAc, 2 mM DTT, 10 mM MgCl2, 4% glycerol, 0.05% Tween 20; saturation not reached, no Kd calculated; conditions: both partners purified
T3 construct: Dhr1 (Ecm16) of Saccharomyces cerevisiae, residues 1-375 deleted and the five residues SKTTD (aa 666-670) of loop 1 deleted; also called ΔN-ΔSKTTD; ΔNΔSKTTD; source: E. coli Codon+ BL21 (DE3) RIL (AJE854), purified (HisTrap FF, HiTrap Capto SP)
T3 sequence (looked up): T1 sequence

[3] = target: T4, ΔN-Dhr1-WT (Δ1 to 375-Dhr1) (Saccharomyces cerevisiae, UniProt Q04217 376-1267); experiment: as above; conditions: both partners purified
T4 construct: Dhr1 (Ecm16), DEAH/RHA RNA helicase of Saccharomyces cerevisiae, residues 1-375 deleted; Cloned into pET21a(+) with a C-terminal Hisx6 tag; also called ΔN-WT; dhr1-Δ1–375 (ΔN); source: E. coli Codon+ BL21 (DE3) RIL (AJE854), purified (HisTrap FF, HiTrap Capto SP)
T4 sequence (looked up): T2 sequence

[4] = target: T5, ΔN-Dhr1-YCK (RecA2 surface mutant) (Saccharomyces cerevisiae, UniProt Q04217 376-1267, H593Y | R596C | E831K); experiment: as above; conditions: both partners purified
T5 construct: Dhr1 (Ecm16) of Saccharomyces cerevisiae, residues 1-375 deleted, with three mutations on the RecA2 surface; also called ΔN-Dhr1-RecA2; ΔN-Dhr1-RecA2-mutants; source: E. coli Codon+ BL21 (DE3) RIL (AJE854), purified (HisTrap FF, HiTrap Capto SP)
T5 sequence (looked up): T2 sequence with H218Y, R221C, E456K

Binder | Kd (ΔN-Dhr1-ΔSKTTD [1]) [nM] | Kd (ΔN-Dhr1-WT) [nM] | binding result (ΔN-Dhr1-ΔSKTTD [2]) | binding result [3] | binding result [4]
UUUUUUUUUUUUUUUUUUUU (ssRNA) [U20] | 60 ± 10 | 300 ± 20 | – | – | –
B1 | – | – | binds | binds | binds
